# Results taken from article PMC12703665, “A Trifunctional, Rare-Earth Theranostic Chelator Platform to Enable Diagnostic Nuclear Imaging, Surgical Resection, and Radiotherapy” (Journal of the American Chemical Society, 2025).
# Where two headings read alike, the source gives them in different places.
# Experiments:
# [1] = test system: PC-3 PIP/flu (PSMA+/PSMA–) tumor xenografts
# Procedure: For in vivo evaluation, athymic nude mice-bearing bilateral PC-3 PIP/flu (PSMA^+/PSMA^–) tumor xenografts were used (Figure ).
# Representative PET-CT (Y-86) or SPECT (Lu-177, Tb-161) images were acquired at different time points starting as early as 0.5 h and up to 25-hours post administration of radiotracer. Mice were initially anesthetized with isoflurane gas at 4% isoflurane in oxygen and maintained during scans at 2.0%. PET-CT and SPECT images were normalized to units of percentage of injected dose per cubic centimeter and presented as maximum intensity projected scan (MIPS) images.
# PET-CT scans were acquired in a Siemens Inveon Hybrid MicroPET/CT Scanner (Siemens Medical Solutions USA, Inc., Knoxville, TN), and image processing and region of interest (ROI) analysis conducted using the Inveon Research Workstation analysis software. ROI analysis of the PET/CT images was used to estimate tracer uptake in major organs or tissues, and quantitative results are given as percentage of injected dose per cubic centimeter (%ID/cc).
# SPECT scans, on the other hand, were collected in a MILabs U-SPECT/CTUHR (ultra high-resolution) system and image processing was carried out using Imalytics preclinical image analysis software.
# [2] = mouse, in vivo
compound,measurement,setting,value
"COCCOCCOCCOc1ccc(C#Cc2cc(CN3CCN(Cc4cccc(C(=O)O)n4)CCN(Cc4cc(SC[C@H](N)C(=O)NCCCCCC(=O)NCCCC[C@H](NC(=O)N[C@@H](CCC(=O)O)C(=O)O)C(=O)O)cc(C(=O)O)n4)CC3)nc(C(=O)O)c2)cc1 [[86Y]Y-pepa-pic2-C-Hex-KuE, metal not drawn]",Bone (ROI),[1]; 0.5 h,1.3 ± 0.5 %ID/cc
same,Heart (ROI),[1]; 0.5 h,1.7 ± 0.5 %ID/cc
same,L. Kidney (ROI),[1]; 0.5 h,12.7 ± 1.6 %ID/cc
same,Liver (ROI),[1]; 0.5 h,1.4 ± 0.5 %ID/cc
same,Muscle (ROI),[1]; 0.5 h,0.8 ± 0.3 %ID/cc
same,R. Kidney (ROI),[1]; 0.5 h,12.0 ± 2.4 %ID/cc
same,Tumor + (ROI),[1]; 0.5 h,4.6 ± 1.7 %ID/cc
same,accumulation in the PSMA- tumor (PET/CT),[1]; 0.5 h post-injection,no significant accumulation
same,Bone (ROI),[1]; 1 h,1.0 ± 0.5 %ID/cc
same,Heart (ROI),[1]; 1 h,1.2 ± 0.3 %ID/cc
same,L. Kidney (ROI),[1]; 1 h,12.2 ± 5.5 %ID/cc
same,Liver (ROI),[1]; 1 h,1.1 ± 0.3 %ID/cc
same,Muscle (ROI),[1]; 1 h,0.8 ± 0.4 %ID/cc
same,R. Kidney (ROI),[1]; 1 h,11.9 ± 3.0 %ID/cc
same,Tumor + (ROI),[1]; 1 h,4.4 ± 1.8 %ID/cc
same,Bone (ROI),[1]; 1.5 h,0.8 ± 0.4 %ID/cc
same,Heart (ROI),[1]; 1.5 h,1.0 ± 0.5 %ID/cc
same,L. Kidney (ROI),[1]; 1.5 h,12.2 ± 3.4 %ID/cc
same,Liver (ROI),[1]; 1.5 h,0.9 ± 0.4 %ID/cc
same,Muscle (ROI),[1]; 1.5 h,0.6 ± 0.4 %ID/cc
same,R. Kidney (ROI),[1]; 1.5 h,12.7 ± 2.9 %ID/cc
same,Tumor + (ROI),[1]; 1.5 h,5.2 ± 1.8 %ID/cc
same,Bone (ROI),[1]; 4 h,0.5 ± 0.3 %ID/cc
same,Heart (ROI),[1]; 4 h,0.5 ± 0.3 %ID/cc
same,L. Kidney (ROI),[1]; 4 h,8.8 ± 1.9 %ID/cc
same,Liver (ROI),[1]; 4 h,0.7 ± 0.4 %ID/cc
same,Muscle (ROI),[1]; 4 h,0.4 ± 0.2 %ID/cc
same,R. Kidney (ROI),[1]; 4 h,8.8 ± 2.3 %ID/cc
same,Tumor + (ROI),[1]; 4 h,5.2 ± 1.7 %ID/cc
same,Bone (ROI),[1]; 25 h,0.3 ± 0.2 %ID/cc
same,Heart (ROI),[1]; 25 h,0.1 ± 0.1 %ID/cc
same,L. Kidney (ROI),[1]; 25 h,4.0 ± 1.2 %ID/cc
same,Liver (ROI),[1]; 25 h,0.3 ± 0.2 %ID/cc
same,Muscle (ROI),[1]; 25 h,0.3 ± 0.3 %ID/cc
same,R. Kidney (ROI),[1]; 25 h,4.0 ± 1.2 %ID/cc
same,Tumor + (ROI),[1]; 25 h,3.3 ± 1.0 %ID/cc
same,probe remaining intact (urine metabolite analysis),[2],> 93%
